The results in this text go back to the nanobody polyreactivity screen of Harvey et al. (2022).

The data set is described as follows: yeast display, Sf9 membrane polyspecificity reagent, FACS + sequencing; frameworks hold sequencing errors. In outline:
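Using colony PCR, genes from sorted yeast display clones were amplified, then sequenced on MiSeq at 2 × 250 and filtered by CDR length. The clones had been stained with 10% biotinylated, detergent-solubilized Sf9 membrane reagent for 1 hour at 4 °C and sorted by FACS into low and high (top ~1%) gates on anti-HA and streptavidin fluorescence. Polyreactivity labels come from the gate of origin.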
As for “QVQLVESGGGLVQAGGSLRLSCAASGSIFANYAMGWYRQAPGKERELVAAITFSSGDSTYYADSVKGRFTISRDNAKNTVYLQMNSLKPEDTAVDYCATVTYGWSGYDYWGQGTQVTVSS”, the “polyreactivity (PSR sort gate)” value is listed as “low polyreactivity”.

Regarding “QVQLVESGGGLVQAGGSLRLSCAASGSIFAPYVMGWYRQAPGKERELVAAITESGGRTYYADSVKGRFTISRDNAKNTVYLQMNSLKPEDTAVYYCAARTYDRNRQLRRQWYDYWGQGTQVTVSS”, the “polyreactivity (PSR sort gate)” value was “high polyreactivity”. As to “QVQLVESGGGLVQAGGSLRLSCAASGSIFARYAMGWYRQAPGKERELVATITRGGSTNYADSVKGRFTISRDNAKNTVYLQMNSLKPEDTAVYYCARTSYGRLDYWGQGTQVTVSS”, the “polyreactivity (PSR sort gate)” value is “low polyreactivity”. With “QVQLVESGGGLVQAGGSLRLSCAASGSIFARYTMGWYRQAPGKERELVAAISTSGSRTYYADSVKGRFTISRDNAKNCVYLLMNSLKPEDTAVYYCNVAWIWGKYDYWGPGTQVTVSS”, the “polyreactivity (PSR sort gate)” value is “high polyreactivity”. For “QVQLVESGGGLVQAGGSLRLSCAASGSIFASNAMGWYRQAPGKERELVADISGTTGSTYYADSVKGRFTISRDNAKNTVYLQMNSLKPEDTAVYYCAADLVWVSTSYYYWGQGTLVTVSS”, the “polyreactivity (PSR sort gate)” value is reported as “low polyreactivity”. Regarding “QVQLVESGGGLVQAGGSLRLSCAASGSIFASNAMGWYSPAPGKERELVAAINSGDSTNYADSVKGRFTISRDNAKNTVYLQMNSLKPEDTAVYYCARGLEERYDYWGQGTQVTVSS”, the “polyreactivity (PSR sort gate)” value is given as “low polyreactivity”.

With “QVQLVESGGGLVQAGGSLRLSCAASGSIFASYAMGWYRQAPGKERELVAAISRSGTSTRYADSVKGRFTISRDNAKNTVYLLMNSLKPEDTAVYYCAARWYVFFRKYDYWGQGTQVTVSS”, the “polyreactivity (PSR sort gate)” value was “high polyreactivity”.

As to “QVQLVESGGGLVQAGGSLRLSCAASGSIFASYGLGWYRQAPGKARELVAAITSRGTSTYYADSVKGRFTISRDNAKNTVDLQMHSLKPEETAVYYCAARLYGSAPQHEYWGQGTQVTVSS”, the “polyreactivity (PSR sort gate)” value is “low polyreactivity”. Regarding “QVQLVESGGGLVQAGGSLRLSCAASGSIFATYAMGWYRQAPGKERELVAAITASDGSTNYADSVKGRFTLSRDNAQNTVYLQMNSLKPEDTAVYYCATDAPYRTDSDSGFDAGYDYWGQGTQVTLSS”, the “polyreactivity (PSR sort gate)” value is on record as “low polyreactivity”.

Take “QVQLVESGGGLVQAGGSLRLSCAASGSIFAVNAMGWYRQAPGKERELVASITSGGSTNYADSVKGRFTISRDNAKNTVYLQMNSLKPEDTAVYYCNADRVRAVSRYDYWGQGTQLTVSS”: the “polyreactivity (PSR sort gate)” value is on record as “low polyreactivity”. Consider “QVQLVESGGGLVQAGGSLRLSCAASGSIFAVYAMGWYRQAPGKERELVAVITRSGGSTYYADSVKGRFTISRDNAKNTVYLQMNSLKPEDTAVYYCAARTGYGYTRYEYWGQGTQVTVSS”, for which the “polyreactivity (PSR sort gate)” value is “high polyreactivity”. Consider “QVQLVESGGGLVQAGGSLRLSCAASGSIFAVYAMGWYRQAPGKERELVAVITRSGGSTYYADSVKGRFTISRDNAKNTVYLQMNTLKPEDTADYYCAARTGYGYTRYEYWGQGTQVTVSS”, for which the “polyreactivity (PSR sort gate)” value is recorded as “high polyreactivity”. As for “QVQLVESGGGLVQAGGSLRLSCAASGSIFAWYAMGWYRQAPGKERELVADITQSGGSTYYADSVKGRFTISRDNAKNTVYLQMNSLKPEDTAVYYCVDYWYNYLQSGWEDDYWGQGTQVTVSS”, the “polyreactivity (PSR sort gate)” value was “low polyreactivity”. Take “QVQLVESGGGLVQAGGSLRLSCAASGSIFAWYGMGWSRQAPGKERELVAAISTAGSTNYADSVKGRFTISRDNAKNTVYFQMNSLKPEDTAVYYCAKKSSWYYPERFDYWGQGTQVTVSS”: the “polyreactivity (PSR sort gate)” value is “low polyreactivity”. Under “QVQLVESGGGLVQAGGSLRLSCAASGSIFAYNAMGWYRQAPGKERELVAAITISGGRTYYADSVKGRFTISRDNAKNTVYLQMNSLKPEDTAVYYCAARYPSGTRKWYGYWGQGTQVTVSS” stands “high polyreactivity”; under “QVQLVESGGGLVQAGGSLRLSCAASGSIFAYNAMGWYRQAPGKERELVASISTGDSTNYADSVKGRFTISRENAKNTDYLQMNSMKPEDTAVYYCNADSYPYYVYGSNVYWGQGSQVTVSS”, “low polyreactivity”.
